Reference: article PMC8187361, “Nanoscale architecture of a VAP-A-OSBP tethering complex at membrane contact sites” (Nature Communications, 2021)

B3: N-PH-FFAT (domain or fragment, UniProt P22059 1-408, looked up)
chain: MAATELRGVVGPGPAAIAALGGGGAGPPVVGGGGGRGDAGPGSGAASGTVVAAAAGGPGPGAGGVAAAGPAPAPPTGGSGGSGAGGSGSAREGWLFKWTNYIKGYQRRWFVLSNGLLSYYRSKAEMRHTCRGTINLATANITVEDSCNFIISNGGAQTYHLKASSEVERQRWVTALELAKAKAVKMLAESDESGDEESVSQTDKTELQNTLRTLSSKVEDLSTCNDLIAKHGTALQRSLSELESLKLPAESNEKIKQVNERATLFRITSNAMINACRDFLMLAQTHSKKWQKSLQYERDQRIRLEETLEQLAKQHNHLERAFRGATVLPANTPGNVGSGKDQCCSGKGDMSDEDDENEFFDAPEIITMPENLGHKRTGSNISGASSDISLDEQYKHQLEETKKEKRTR
notes: OSBP residues 1-408 (N-terminal region, PH domain, central core, FFAT motif), lacking the ORD; also called 1-408-OSBP; NH-FFAT

Key:
OSBP FFAT (Homo sapiens) = OSBP FFAT (Homo sapiens) (UniProt P22059); conditions: cited from earlier work
[1] = molecular target: the molecule itself; assay: SEC; analytical gel filtration, Superdex 75, 100 ul of 10 uM protein, 25 mM Tris pH 7.5, 120 mM NaCl, 1 mM DTT; Stokes radius against MW of standards
[2] = molecular target: the molecule itself; assay: cryo-EM structure; cryo-ET with sub-tomogram averaging of contact sites between VAP-A vesicles (LPR 70 mol/mol) and N-PH-FFAT on PI4P tubes; class with 20-25 nm membrane separation; VAP-A and N-PH-FFAT averaged separately
[3] = molecular target: the molecule itself; assay: SDS-PAGE without heating; purified VAP-A in DDM, with reducing agents; bands at ~55 kDa and ~25 kDa, a single band when the samples were heated
N-PH-FFAT = molecular target: B3; assay: membrane tethering seen by cryo-EM and cryo-ET; N-PH-FFAT or OSBP bound to GalCer/PI4P tubes (70 lipids/protein mol/mol), VAP-A proteoliposomes added (2 min incubation, or sequentially on the grid for 30 s), HK buffer, room temperature; conditions: both partners purified

In the case of VAP-A MSP (from UniProt Q9P0L0), the Kd (OSBP FFAT (Homo sapiens)) is listed as 2 µM.

B1: OSBP CC[G324C] (C224A/C276A/G324C) (domain or fragment, UniProt P22059 199-324, looked up)
chain: VSQTDKTELQNTLRTLSSKVEDLSTANDLIAKHGTALQRSLSELESLKLPAESNEKIKQVNERATLFRITSNAMINAARDFLMLAQTHSKKWQKSLQYERDQRIRLEETLEQLAKQHNHLERAFRC
modifications: AF-488, AF-568 or both dyes on the introduced cysteine C324 in the FRET experiments; unlabelled in gel filtration
notes: Cloned via BamH1/Xma1 into pGEX-4T2; source: E. coli Bl21gold, purified (Glutathione-Sepharose, thrombin, MonoS, Superose 12)
B1: binds [1].

B2: OSBP Central Core (CC), wild type (domain or fragment, UniProt P22059 199-324, looked up)
chain: VSQTDKTELQNTLRTLSSKVEDLSTCNDLIAKHGTALQRSLSELESLKLPAESNEKIKQVNERATLFRITSNAMINACRDFLMLAQTHSKKWQKSLQYERDQRIRLEETLEQLAKQHNHLERAFRG
notes: The methods describe cloning (pGEX-4T2, GST tag, thrombin cleavage) and purification only for the cysteine mutants; also called OSBP CC; source: E. coli, purified
In the case of B2, the “stoichiometry N” value [1] is reported as 2.

With B3 the “stoichiometry N” value [2] was 2.

B4: VAP-A (natural protein, human, UniProt Q9P0L0 8-249, looked up)
chain: MAKHEQILVLDPPTDLKFKGPFTDVVTTNLKLRNPSDRKVCFKVKTTAPRRYCVRPNSGIIDPGSTVTVSVMLQPFDYDPNEKSKHKFMVQTIFAPPNTSDMEAVWKEAKPDELMDSKLRCVFEMPNENDKLNDMEPSKAVPLNASKQDGPMPKPHSVSLNDTETRKLMEECKRLQGEMMKLSEENRHLRDEGLRLRKVAHSDKPGSTSTASFRDNVTSPLPSLLVVIAAIFIGFFLGKFIL
notes: VAP-A, human, Q9P0L0, fragment 8-249 with its C-terminal transmembrane helix; The methods give the fragment 8-249 and the results say full-length; Both tags were removed with TEV protease before size exclusion chromatography; also called full-length VAP-A; human VAP-A; source: E. coli C41 (DE3), membranes solubilised in DDM, purified (Strep-Tactin, TEV, Superdex 200); reconstituted in egg …
For B4, the “stoichiometry N” value [3] was 2 and the binding result (N-PH-FFAT) was “binds”.
